In PMC7141136, “Ohr and OhrR Are Critical for Organic Peroxide Resistance and Symbiosis in Azorhizobium caulinodans ORS571”:
One block for each molecule: values may come before it.

How the values were obtained:
[1] = target: OhrR (AZC_3555) of Azorhizobium caulinodans ORS571, 6×His-tagged recombinant protein (Azorhizobium caulinodans ORS571); assay: non-reducing SDS-PAGE; purified OhrR oxidised with 0.1 mM CuOOH for 10 min, then non-reducing SDS-PAGE; covalent dimer
[2] = target: OhrR^C121S (Azorhizobium caulinodans ORS571); assay: as above
OhrR = target: T1, OhrR (Azorhizobium caulinodans ORS571, UniProt A8IEZ4 1-144); assay: EMSA; reduced (2.5 mM DTT in buffer); dose-dependent; 50 mM Tris-HCl pH 8.3, 0.25 M KCl, 2.5 mM DTT, 5 mM MgCl2, 0.05 ug/mL poly(dI-dC), 2.5 mM EDTA, 1% glycerol; 20 nM DNA, 20 uL, 20 min, room temperature; 6% native PAGE in 0.5x TBE; settings: protein: recombinant; tags: N-terminal 6xHis (pET-28a); chain copies: 2; label: none (GelRed stain)
T1 sequence: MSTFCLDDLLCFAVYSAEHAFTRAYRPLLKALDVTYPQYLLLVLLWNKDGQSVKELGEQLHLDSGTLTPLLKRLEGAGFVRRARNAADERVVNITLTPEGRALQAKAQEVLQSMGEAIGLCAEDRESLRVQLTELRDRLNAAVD

stoichiometry N [1]: 2
Molecule: OhrR (AZC_3555) of Azorhizobium caulinodans ORS571, 6×His-tagged recombinant protein (natural protein)

stoichiometry N [2]: 2
Molecule: OhrR^C121S (natural protein)

B1: ohr promoter probe (181 bp) (dsDNA)
DNA 1: CAAAGGGTTAGTTTTCCGTTGCGGAAGGTTGGGTGATGTTGACGGTGGTCTGCAAAATAAGTTTGACACAATCAAATTGTGTGCTACTTAAATGGCCATGGAAGCGGCTTGGCCGTTTCTCATCGATTTCTCAAGGCACGAGGATCAAGCGATGTCCGTCGATGTGAAGTACACCACCAAG
DNA 2: CTTGGTGGTGTACTTCACATCGACGGACATCGCTTGATCCTCGTGCCTTGAGAAATCGATGAGAAACGGCCAAGCCGCTTCCATGGCCATTTAAGTAGCACACAATTTGATTGTGTCAAACTTATTTTGCAGACCACCGTCAACATCACCCAACCTTCCGCAACGGAAAACTAACCCTTTG
binding result (OhrR): binds
